The chains are these.
B1: GpH7-A5/GpH7-B3 variant T335_04F/GpL16-k0 (antibody, human IgG1, kappa)
heavy 1: not shown
heavy 2: not shown
light: DIVMTQSPLSLPVTPGEPASISCQASESLVHSNRNTYLHWYLQKPGQSPQLLIYKVSNRFSGVPDRFSGSGSGTDFTLKISRVEAEDVGVYYCSQNTHVPPTFGQGTKVEIERTVAAPSVFIFPPSDEQLKSGTASVVCLLNNFYPREAKVQWKVDNALQSGNSQESVTEQDSKDSTYSLSSTLTLSKADYEKHKVYACEVTHQGLSSPVTKSFNRGEC
notes: heterodimerized IgG1, mutation in one H chain only; also called He Ab
B2: GpH7-A5/GpH7-B3 variant T335_11K/GpL16-k0 (antibody, human IgG1, kappa)
heavy 1: not shown
heavy 2: not shown
light: B1 light
notes: as for B1
B3: GpH7-A5/GpH7-B3 variant D265_10E/GpL16-k0 (antibody, human IgG1, kappa)
heavy 1: not shown
heavy 2: not shown
light: B1 light
notes: as for B1
B4: GpH7-A5/GpH7-B3 variant H268_09D/GpL16-k0 (antibody, human IgG1, kappa)
heavy 1: not shown
heavy 2: not shown
light: B1 light
notes: as for B1
B5: GpH7-A5/GpH7-B3 variant T335_15Y/GpL16-k0 (antibody, human IgG1, kappa)
heavy 1: not shown
heavy 2: not shown
light: B1 light
notes: as for B1
B6: GpH7-A5/GpH7-B3 variant S337_06M/GpL16-k0 (antibody, human IgG1, kappa)
heavy 1: not shown
heavy 2: not shown
light: B1 light
notes: as for B1
B7: GpH7-A5/GpH7-B3 variant I336_14T/GpL16-k0 (antibody, human IgG1, kappa)
heavy 1: not shown
heavy 2: not shown
light: B1 light
notes: as for B1
B8: GpH7-A5/GpH7-B3 variant A330_10E/GpL16-k0 (antibody, human IgG1, kappa)
heavy 1: not shown
heavy 2: not shown
light: B1 light
notes: as for B1
B9: GpH7-A5/GpH7-B3 variant S337_08L/GpL16-k0 (antibody, human IgG1, kappa)
heavy 1: not shown
heavy 2: not shown
light: B1 light
notes: as for B1
B10: GpH7-A5/GpH7-B3 variant A330_20W/GpL16-k0 (antibody, human IgG1, kappa)
heavy 1: not shown
heavy 2: not shown
light: B1 light
notes: as for B1
B11: GpH7-A5/GpH7-B3 variant T335_09D/GpL16-k0 (antibody, human IgG1, kappa)
heavy 1: not shown
heavy 2: not shown
light: B1 light
notes: as for B1
B12: GpH7-A5/GpH7-B3 variant T335_10E/GpL16-k0 (antibody, human IgG1, kappa)
heavy 1: not shown
heavy 2: not shown
light: B1 light
notes: as for B1
B13: GpH7-A5/GpH7-B3 variant I336_12R/GpL16-k0 (antibody, human IgG1, kappa)
heavy 1: not shown
heavy 2: not shown
light: B1 light
notes: as for B1
B14: GpH7-A5/GpH7-B3 variant S337_10E/GpL16-k0 (antibody, human IgG1, kappa)
heavy 1: not shown
heavy 2: not shown
light: B1 light
notes: as for B1
B15: GpH7-A5/GpH7-B3 variant I336_08L/GpL16-k0 (antibody, human IgG1, kappa)
heavy 1: not shown
heavy 2: not shown
light: B1 light
notes: as for B1
B16: GpH7-A5/GpH7-B3 variant A330_19Q/GpL16-k0 (antibody, human IgG1, kappa)
heavy 1: not shown
heavy 2: not shown
light: B1 light
notes: as for B1
B17: GpH7-A5/GpH7-B3 variant I336_13S/GpL16-k0 (antibody, human IgG1, kappa)
heavy 1: not shown
heavy 2: not shown
light: B1 light
notes: as for B1
B18: GpH7-A5/GpH7-B3 variant S337_07I/GpL16-k0 (antibody, human IgG1, kappa)
heavy 1: not shown
heavy 2: not shown
light: B1 light
notes: as for B1
B19: GpH7-A5/GpH7-B3 variant S337_20W/GpL16-k0 (antibody, human IgG1, kappa)
heavy 1: not shown
heavy 2: not shown
light: B1 light
notes: as for B1
B20: GpH7-A5/GpH7-B3 variant H268_13S/GpL16-k0 (antibody, human IgG1, kappa)
heavy 1: not shown
heavy 2: not shown
light: B1 light
notes: as for B1
B21: GpH7-A5/GpH7-B3 variant T335_06M/GpL16-k0 (antibody, human IgG1, kappa)
heavy 1: not shown
heavy 2: not shown
light: B1 light
notes: as for B1
B22: GpH7-A5/GpH7-B3 variant H268_01G/GpL16-k0 (antibody, human IgG1, kappa)
heavy 1: not shown
heavy 2: not shown
light: B1 light
notes: as for B1
B23: GpH7-A5/GpH7-B3 variant I336_09D/GpL16-k0 (antibody, human IgG1, kappa)
heavy 1: not shown
heavy 2: not shown
light: B1 light
notes: as for B1
B24: GpH7-A5/GpH7-B3 variant S337_04F/GpL16-k0 (antibody, human IgG1, kappa)
heavy 1: not shown
heavy 2: not shown
light: B1 light
notes: as for B1
B25: GpH7-A5/GpH7-B3 variant A330_04F/GpL16-k0 (antibody, human IgG1, kappa)
heavy 1: not shown
heavy 2: not shown
light: B1 light
notes: as for B1
B26: GpH7-A5/GpH7-B3 variant S337_09D/GpL16-k0 (antibody, human IgG1, kappa)
heavy 1: not shown
heavy 2: not shown
light: B1 light
notes: as for B1
B27: GpH7-A5/GpH7-B3 variant A330_01G/GpL16-k0 (antibody, human IgG1, kappa)
heavy 1: not shown
heavy 2: not shown
light: B1 light
notes: as for B1
B28: GpH7-A5/GpH7-B3 variant H268_18N/GpL16-k0 (antibody, human IgG1, kappa)
heavy 1: not shown
heavy 2: not shown
light: B1 light
notes: as for B1
B29: GpH7-A5/GpH7-B3 variant H268_10E/GpL16-k0 (antibody, human IgG1, kappa)
heavy 1: not shown
heavy 2: not shown
light: B1 light
notes: as for B1
B30: GpH7-A5/GpH7-B3 variant I336_11K/GpL16-k0 (antibody, human IgG1, kappa)
heavy 1: not shown
heavy 2: not shown
light: B1 light
notes: as for B1
B31: GpH7-A5/GpH7-B3 variant T335_08L/GpL16-k0 (antibody, human IgG1, kappa)
heavy 1: not shown
heavy 2: not shown
light: B1 light
notes: as for B1
B32: GpH7-A5/GpH7-B3 variant S337_15Y/GpL16-k0 (antibody, human IgG1, kappa)
heavy 1: not shown
heavy 2: not shown
light: B1 light
notes: as for B1
B33: GpH7-A5/GpH7-B3 variant T335_05P/GpL16-k0 (antibody, human IgG1, kappa)
heavy 1: not shown
heavy 2: not shown
light: B1 light
notes: as for B1
B34: GpH7-A5/GpH7-B3 variant S337_19Q/GpL16-k0 (antibody, human IgG1, kappa)
heavy 1: not shown
heavy 2: not shown
light: B1 light
notes: as for B1
B35: GpH7-A5/GpH7-B3 variant T335_12R/GpL16-k0 (antibody, human IgG1, kappa)
heavy 1: not shown
heavy 2: not shown
light: B1 light
notes: as for B1
B36: GpH7-A5/GpH7-B3 variant T335_07I/GpL16-k0 (antibody, human IgG1, kappa)
heavy 1: not shown
heavy 2: not shown
light: B1 light
notes: as for B1
B37: GpH7-B3 variant T335_15Y/GpL16-k0 (antibody, human IgG1, kappa)
heavy: not shown
light: B1 light
notes: homodimerized IgG1, mutation in both H chains; also called Ho Ab
B38: GpH7-B3 variant Y296_16H/GpL16-k0 (antibody, human IgG1, kappa)
heavy: not shown
light: B1 light
notes: as for B37
B39: GpH7-B3 variant Y300_03V/GpL16-k0 (antibody, human IgG1, kappa)
heavy: not shown
light: B1 light
notes: as for B37
B40: GpH7-B3 variant T335_20W/GpL16-k0 (antibody, human IgG1, kappa)
heavy: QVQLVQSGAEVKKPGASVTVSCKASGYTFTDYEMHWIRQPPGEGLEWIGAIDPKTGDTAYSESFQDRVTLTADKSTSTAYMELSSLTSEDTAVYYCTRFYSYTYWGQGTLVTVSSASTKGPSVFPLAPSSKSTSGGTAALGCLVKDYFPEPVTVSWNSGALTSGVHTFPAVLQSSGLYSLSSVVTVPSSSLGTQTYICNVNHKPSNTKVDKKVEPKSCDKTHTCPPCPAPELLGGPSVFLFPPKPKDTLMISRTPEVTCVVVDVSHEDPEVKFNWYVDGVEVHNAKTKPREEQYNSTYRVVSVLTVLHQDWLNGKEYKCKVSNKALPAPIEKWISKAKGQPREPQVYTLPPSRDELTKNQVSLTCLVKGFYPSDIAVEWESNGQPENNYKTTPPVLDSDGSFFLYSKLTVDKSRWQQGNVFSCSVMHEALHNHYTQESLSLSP
light: B1 light
notes: as for B37
B41: GpH7-B3 variant Y296_20W/GpL16-k0 (antibody, human IgG1, kappa)
heavy: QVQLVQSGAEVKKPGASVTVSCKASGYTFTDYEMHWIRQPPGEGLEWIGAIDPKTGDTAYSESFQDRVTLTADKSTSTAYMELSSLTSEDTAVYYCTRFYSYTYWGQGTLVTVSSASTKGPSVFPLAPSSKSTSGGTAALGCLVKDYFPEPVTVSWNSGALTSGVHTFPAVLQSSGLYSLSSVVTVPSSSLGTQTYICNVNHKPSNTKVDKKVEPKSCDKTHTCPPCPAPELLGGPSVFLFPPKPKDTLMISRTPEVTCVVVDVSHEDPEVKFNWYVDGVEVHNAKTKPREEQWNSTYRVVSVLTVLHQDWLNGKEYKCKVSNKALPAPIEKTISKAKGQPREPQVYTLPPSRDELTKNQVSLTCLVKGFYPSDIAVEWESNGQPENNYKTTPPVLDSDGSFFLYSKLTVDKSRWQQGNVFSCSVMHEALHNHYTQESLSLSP
light: B1 light
notes: as for B37
B42: GpH7-B3 variant T335_19Q/GpL16-k0 (antibody, human IgG1, kappa)
heavy: not shown
light: B1 light
notes: as for B37
B43: GpH7-B3 variant Y296_11K/GpL16-k0 (antibody, human IgG1, kappa)
heavy: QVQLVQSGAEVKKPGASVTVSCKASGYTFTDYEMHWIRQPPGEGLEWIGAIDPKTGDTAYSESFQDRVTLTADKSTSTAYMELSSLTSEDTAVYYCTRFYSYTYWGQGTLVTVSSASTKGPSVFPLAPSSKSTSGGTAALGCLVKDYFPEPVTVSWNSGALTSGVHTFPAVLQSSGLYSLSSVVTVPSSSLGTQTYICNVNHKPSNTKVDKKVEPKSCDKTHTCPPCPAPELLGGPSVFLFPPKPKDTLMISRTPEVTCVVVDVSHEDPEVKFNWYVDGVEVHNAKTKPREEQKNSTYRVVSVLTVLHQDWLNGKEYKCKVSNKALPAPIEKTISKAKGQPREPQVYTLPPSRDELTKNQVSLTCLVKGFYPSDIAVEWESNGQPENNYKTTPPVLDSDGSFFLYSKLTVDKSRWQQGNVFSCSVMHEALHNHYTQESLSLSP
light: B1 light
notes: as for B37
B44: GpH7-B3 variant T335_16H/GpL16-k0 (antibody, human IgG1, kappa)
heavy: not shown
light: B1 light
notes: as for B37
B45: GpH7-B3 variant Y300_20W/GpL16-k0 (antibody, human IgG1, kappa)
heavy: not shown
light: B1 light
notes: as for B37
B46: GpH7-B3 variant T335_18N/GpL16-k0 (antibody, human IgG1, kappa)
heavy: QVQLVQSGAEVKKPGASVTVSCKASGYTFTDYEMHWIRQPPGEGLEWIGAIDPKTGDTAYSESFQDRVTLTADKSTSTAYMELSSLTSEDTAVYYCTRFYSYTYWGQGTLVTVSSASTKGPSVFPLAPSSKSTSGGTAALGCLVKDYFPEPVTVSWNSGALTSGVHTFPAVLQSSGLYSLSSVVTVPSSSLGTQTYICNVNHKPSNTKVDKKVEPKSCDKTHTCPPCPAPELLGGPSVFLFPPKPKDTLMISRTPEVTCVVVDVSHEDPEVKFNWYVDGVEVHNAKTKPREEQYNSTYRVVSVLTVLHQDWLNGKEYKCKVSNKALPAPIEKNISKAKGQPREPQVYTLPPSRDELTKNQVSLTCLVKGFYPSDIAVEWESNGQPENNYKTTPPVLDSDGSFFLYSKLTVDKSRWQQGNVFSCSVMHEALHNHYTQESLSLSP
light: B1 light
notes: as for B37
B47: GpH7-B3 variant Y300_11K/GpL16-k0 (antibody, human IgG1, kappa)
heavy: not shown
light: B1 light
notes: as for B37
B48: GpH7-B3 variant Y296_06M/GpL16-k0 (antibody, human IgG1, kappa)
heavy: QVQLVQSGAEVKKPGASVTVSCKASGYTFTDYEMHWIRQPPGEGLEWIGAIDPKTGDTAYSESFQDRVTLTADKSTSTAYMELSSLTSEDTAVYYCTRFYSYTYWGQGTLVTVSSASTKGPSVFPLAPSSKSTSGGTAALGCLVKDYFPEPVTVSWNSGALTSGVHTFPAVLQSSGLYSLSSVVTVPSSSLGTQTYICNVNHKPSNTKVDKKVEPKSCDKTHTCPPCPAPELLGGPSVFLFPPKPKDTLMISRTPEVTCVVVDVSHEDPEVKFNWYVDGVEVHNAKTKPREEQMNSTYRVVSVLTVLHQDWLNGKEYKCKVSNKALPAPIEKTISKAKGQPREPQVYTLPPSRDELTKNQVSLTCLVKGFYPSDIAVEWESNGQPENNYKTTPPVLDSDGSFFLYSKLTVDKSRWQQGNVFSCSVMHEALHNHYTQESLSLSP
light: B1 light
notes: as for B37
B49: GpH7-B3 variant Y296_12R/GpL16-k0 (antibody, human IgG1, kappa)
heavy: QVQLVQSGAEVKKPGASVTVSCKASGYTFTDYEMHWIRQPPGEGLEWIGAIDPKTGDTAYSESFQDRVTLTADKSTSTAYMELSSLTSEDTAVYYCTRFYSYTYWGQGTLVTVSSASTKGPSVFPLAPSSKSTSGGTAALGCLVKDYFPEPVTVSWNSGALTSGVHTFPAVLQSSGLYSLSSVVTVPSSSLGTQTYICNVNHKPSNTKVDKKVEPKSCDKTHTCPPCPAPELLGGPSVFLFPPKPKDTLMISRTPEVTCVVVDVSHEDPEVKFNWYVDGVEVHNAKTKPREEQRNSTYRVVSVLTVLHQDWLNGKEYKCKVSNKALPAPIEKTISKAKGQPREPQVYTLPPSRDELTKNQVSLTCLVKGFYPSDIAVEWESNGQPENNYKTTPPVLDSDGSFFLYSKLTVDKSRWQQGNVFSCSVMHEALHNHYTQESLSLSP
light: B1 light
notes: as for B37
B50: GpH7-B3 variant Y300_06M/GpL16-k0 (antibody, human IgG1, kappa)
heavy: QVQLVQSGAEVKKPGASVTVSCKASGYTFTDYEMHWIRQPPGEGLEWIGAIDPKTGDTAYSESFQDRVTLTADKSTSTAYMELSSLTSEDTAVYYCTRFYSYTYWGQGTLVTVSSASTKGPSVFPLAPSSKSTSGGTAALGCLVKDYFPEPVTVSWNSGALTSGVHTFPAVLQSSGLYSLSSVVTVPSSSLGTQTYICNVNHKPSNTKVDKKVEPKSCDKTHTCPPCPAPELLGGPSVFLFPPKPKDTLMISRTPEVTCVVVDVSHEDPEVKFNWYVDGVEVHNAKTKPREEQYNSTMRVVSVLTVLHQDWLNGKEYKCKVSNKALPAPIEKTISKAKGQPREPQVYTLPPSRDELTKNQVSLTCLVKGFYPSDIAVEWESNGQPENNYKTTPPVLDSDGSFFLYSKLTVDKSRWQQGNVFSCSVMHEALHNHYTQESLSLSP
light: B1 light
notes: as for B37
B51: GpH7-B3 variant Y300_19Q/GpL16-k0 (antibody, human IgG1, kappa)
heavy: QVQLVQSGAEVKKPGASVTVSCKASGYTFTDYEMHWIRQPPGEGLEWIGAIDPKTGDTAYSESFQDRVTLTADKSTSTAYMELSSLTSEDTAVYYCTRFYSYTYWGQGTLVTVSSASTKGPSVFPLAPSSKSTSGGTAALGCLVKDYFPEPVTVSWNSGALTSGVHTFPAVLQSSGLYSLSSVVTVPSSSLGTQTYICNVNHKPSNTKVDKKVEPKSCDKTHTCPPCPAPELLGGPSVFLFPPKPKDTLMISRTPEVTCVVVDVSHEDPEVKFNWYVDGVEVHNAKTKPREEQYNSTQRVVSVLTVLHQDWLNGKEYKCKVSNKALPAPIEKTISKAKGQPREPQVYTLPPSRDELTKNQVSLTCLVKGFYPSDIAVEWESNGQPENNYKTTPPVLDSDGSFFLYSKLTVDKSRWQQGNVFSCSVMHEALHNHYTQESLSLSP
light: B1 light
notes: as for B37
B52: GpH7-B3 variant Y300_02A/GpL16-k0 (antibody, human IgG1, kappa)
heavy: not shown
light: B1 light
notes: as for B37
B53: GpH7-B3 variant Y300_14T/GpL16-k0 (antibody, human IgG1, kappa)
heavy: not shown
light: B1 light
notes: as for B37
B54: GpH7-B3 variant Y300_13S/GpL16-k0 (antibody, human IgG1, kappa)
heavy: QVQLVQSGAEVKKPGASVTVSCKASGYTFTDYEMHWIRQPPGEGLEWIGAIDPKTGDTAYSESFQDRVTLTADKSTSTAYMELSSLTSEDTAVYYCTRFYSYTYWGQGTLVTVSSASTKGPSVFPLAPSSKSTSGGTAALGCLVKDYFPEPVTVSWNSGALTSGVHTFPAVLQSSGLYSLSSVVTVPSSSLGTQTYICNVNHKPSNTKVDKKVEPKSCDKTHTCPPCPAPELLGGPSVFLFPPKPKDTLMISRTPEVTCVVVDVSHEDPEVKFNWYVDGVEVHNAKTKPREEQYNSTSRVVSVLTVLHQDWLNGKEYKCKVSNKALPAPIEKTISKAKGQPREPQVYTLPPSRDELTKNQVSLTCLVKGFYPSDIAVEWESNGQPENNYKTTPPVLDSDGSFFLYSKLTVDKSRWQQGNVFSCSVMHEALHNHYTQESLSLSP
light: B1 light
notes: as for B37
B55: GpH7-B3 variant Y300_08L/GpL16-k0 (antibody, human IgG1, kappa)
heavy: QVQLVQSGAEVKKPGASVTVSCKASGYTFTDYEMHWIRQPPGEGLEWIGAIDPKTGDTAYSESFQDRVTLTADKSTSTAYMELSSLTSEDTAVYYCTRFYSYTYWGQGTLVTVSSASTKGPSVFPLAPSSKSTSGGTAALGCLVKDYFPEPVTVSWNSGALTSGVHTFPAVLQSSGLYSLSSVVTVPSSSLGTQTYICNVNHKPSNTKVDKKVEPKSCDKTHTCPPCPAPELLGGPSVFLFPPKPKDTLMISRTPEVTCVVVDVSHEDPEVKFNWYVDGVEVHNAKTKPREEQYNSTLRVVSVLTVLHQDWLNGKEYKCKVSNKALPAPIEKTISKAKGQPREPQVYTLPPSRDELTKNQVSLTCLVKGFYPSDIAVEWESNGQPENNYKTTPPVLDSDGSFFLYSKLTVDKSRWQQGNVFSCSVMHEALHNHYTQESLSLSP
light: B1 light
notes: as for B37

T1 sequence (P12314 16-292): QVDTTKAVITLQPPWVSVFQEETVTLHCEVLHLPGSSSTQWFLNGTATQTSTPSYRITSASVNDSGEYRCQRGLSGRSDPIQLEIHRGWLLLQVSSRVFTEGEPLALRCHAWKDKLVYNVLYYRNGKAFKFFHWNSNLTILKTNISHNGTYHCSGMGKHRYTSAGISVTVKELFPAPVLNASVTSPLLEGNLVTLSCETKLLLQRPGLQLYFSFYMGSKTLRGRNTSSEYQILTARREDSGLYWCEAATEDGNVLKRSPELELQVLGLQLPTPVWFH

The first test addresses T1, FcγRIa (human, UniProt P12314 16-292).
T1 construct: extracellular domain; soluble His-tagged extracellular domain expressed in FreeStyle293 cells, used as analyte in Biacore; also called FcgRI; CD64
The experiment in a line: SPR (Biacore), captured antibody, FcγRIa analyte; relative to GpH7-A5/GpH7-B3/GpL16-k0.
Take B1: the He/Con_1a is 105 relative, control = 100.
For the molecule B2, the He/Con_1a was 111 relative, control = 100.
B3: the He/Con_1a is 101 relative, control = 100.
Regarding B4, the He/Con_1a was 110 relative, control = 100.
Same read-out and setting: next, B5: 107 relative, control = 100.
Take B6: the He/Con_1a is 107 relative, control = 100.
The same measure, in the same setting: then B7, with 104 relative, control = 100; and B8, with 107 relative, control = 100.
In the case of B9, the He/Con_1a was 105 relative, control = 100.
For the molecule B10, the He/Con_1a was 108 relative, control = 100.
As for B11, the He/Con_1a was 108 relative, control = 100.
On to B12, for which the He/Con_1a is 109 relative, control = 100.
Same read-out and setting: next, B13: 102 relative, control = 100; B14: 106 relative, control = 100.
Same read-out and setting: next, B15: 107 relative, control = 100.
Take B16: the He/Con_1a was 105 relative, control = 100.
For the molecule B17, the He/Con_1a was 102 relative, control = 100.
On to B18, for which the He/Con_1a is 105 relative, control = 100.
Same read-out and setting: next, B19: 105 relative, control = 100.
On the same count and under the same terms, next, B20: 109 relative, control = 100; B21: 107 relative, control = 100.
Turning to B22, the He/Con_1a was 107 relative, control = 100.
Regarding B23, the He/Con_1a was 104 relative, control = 100.
With B24, the He/Con_1a was 106 relative, control = 100.
Still for that read-out and setting: then B25, with 106 relative, control = 100.
Regarding B26, the He/Con_1a is 106 relative, control = 100.
Turning to B27, the He/Con_1a is 106 relative, control = 100.
With B28, the He/Con_1a is 108 relative, control = 100.
On the same count and under the same terms, then B29, with 111 relative, control = 100.
In the case of B30, the He/Con_1a was 105 relative, control = 100.
On to B31, for which the He/Con_1a is 115 relative, control = 100.
As to B32, the He/Con_1a is 104 relative, control = 100.
With B33, the He/Con_1a is 106 relative, control = 100.
On the same count and under the same terms, then B34, with 105 relative, control = 100; and B35, with 113 relative, control = 100.
Take B36: the He/Con_1a is 109 relative, control = 100.

The target of the next test is T1, FcγRIa. Kind of test: SPR (Biacore), captured antibody, FcγRIa analyte; relative to GpH7-B3/GpL16-k0.
B37: the Ho/Con_1a is 106 relative, control = 100.
Consider B38, for which the Ho/Con_1a is 105 relative, control = 100.
Consider B39, for which the Ho/Con_1a is 112 relative, control = 100.
With B40, the Ho/Con_1a was 104 relative, control = 100.
Regarding B41, the Ho/Con_1a was 106 relative, control = 100.
On the same count and under the same terms, then B42, with 105 relative, control = 100.
For B43, the Ho/Con_1a is 102 relative, control = 100.
On the same count and under the same terms, then B44, with 104 relative, control = 100.
B45: the Ho/Con_1a is 110 relative, control = 100.
Turning to B46, the Ho/Con_1a was 102 relative, control = 100.
B47: the Ho/Con_1a was 101 relative, control = 100.
On the same count and under the same terms, then B48, with 104 relative, control = 100.
On to B49, for which the Ho/Con_1a was 103 relative, control = 100.
Regarding B50, the Ho/Con_1a is 111 relative, control = 100.
Still for that read-out and setting: next, B51: 110 relative, control = 100.
In the case of B52, the Ho/Con_1a was 110 relative, control = 100.
For the molecule B53, the Ho/Con_1a was 110 relative, control = 100.
For the molecule B54, the Ho/Con_1a is 110 relative, control = 100.
With B55, the Ho/Con_1a is 109 relative, control = 100.

The values above are taken from patent publication US20150344570A1 (published 2015).
